B1: Clathrin heavy chain fused to mScarlet (Chc-mScarlet), wild type [Saccharomyces cerevisiae] / Ent2 endogenously tagged with mNeonGreen (Ent2-mNeonGreen) [Saccharomyces cerevisiae (endogenous in MK100)] (parent complex)
chain 1: MSDLPIEFTELVDLMSLGISPQFLDFRSTTFESDHFVTVRETKDGTNSVAIVDLAKGNEVTRKNMGGDSAIMHPSQMVISVRANGTIVQIFNLETKSKLKSFTLDEPVIFWRWLSETTLGFVTARSILTSNVFDGNVNAKPQLLTLRHANLNNTQIINFVANKNLDWFAVVGILQENGRIAGRIQLFSKQRNISQAIDGHVAIFTNILLEGNGSTPVQVFVTGNRNATTGAGELRIIEIDHDASLPSQYQKETTDIFFPPDATNDFPIAVQVSEKYGIIYLLTKYGFIHLYELETGTNLFVNRITAESVFTAAPYNHENGIACINKKGQVLAVEISTSQIVPYILNKLSNVALALIVATRGGLPGADDLFQKQFESLLLQNDYQNAAKVAASSTSLRNQNTINRLKNIQAPPGAISPILLYFSTLLDKGKLNKEETIELARPVLQQDRKQLFEKWLKEDKLECSEELGDIVKPFDTTLALACYLRAGAHAKVISCLAELQQFEKIIPYCQKVGYQPNFLVLISSLIRSSPDRASEFAVSLLQNPETASQIDIEKIADLFFSQNHIQQGTSLLLDALKGDTPDQGHLQTRVLEVNLLHAPQVADAILGNNIFSHYDKPTIASLSEKAGLYQRALENYTDIKDIKRCVVHTNALPIDWLVGYFGKLNVEQSLACLKALMDNNIQANIQTVVQVATKFSDLIGPSTLIKLFEDYNATEGLYYYLASLVNLTEDKDVVYKYIEAAAKMKQYREIERIVKDNNVYDPERVKNFLKDANLEDQLPLVIVCDRFDFVHEMILYLYKSQNLKFIETYVQQVNPSKTAQVVGALLDMDCDEAFIQSLLQSVLGQVPINELTTEVEKRNRLKILLPFLEQSLSQGIQDQAVYNALAKIYIDSNNSPEKFLKENDQYDTLDVGHYCEKRDPYLAYIAYEKGQNDDDLIRITNENSMYKYQARYLLERSDLDLWNKVLNQENIHRRQLIDSVISVGIPELTDPEPVSLTVQAFMTNGLKLELIELLEKIILEPSPFNENVALQGLLLLSAIKYEPTKVSSYIEKLDNYDADEIAPLCIEHDLKEEAFEIYDKHEMYGKALKVLIEDIMSLDRAASYADKINTPELWSQIGTAQLDGLRIPDAIESYIKAEDPSNYENVIDIAEQAGKYEELIPFLLMARKTLKEPKIDGALILAYAELNKIHEIENLLAGSNVANLDHVGDKLFENKEYKAARLCYSAVSNYSKLASTLVYLGDYQAAVDTARKASNIKVWKLVNDACIEKKEFKLAQICGLNLIVHAEELDELVERYESNGYFEELISLFEAGLGLERAHMGMFTELAILYSKYEPDKTFEHLKLFWSRINIPKVIRAVEQAHLWSELVFLYAHYDEWDNAALTLIEKSTKDLDHAYFKEVVVKVSNLEIYYKAINFYVKFHPSLLVDLLTSLTPRLDIPRTVKIFSKSDNLPLIKPFLINVLPKNNSVVNQAYHDLMIEEEDYKALQDAVDSYDKFDQLGLASRLESHKLIFFKKIGALLYRRNKKWAKSLSILKEEKLWKDAIETAAISQDPKVVEALLTYFVETGNREGFVALLYAAYNLVRIEFVLEISWMNSLEDYIKPFEISIKKEQNDSIKKITEELAKKSGSNEEHKDGQPLMLMNSAMNVQPTGF
chain 2: MSKQFVRSAKNMMKGYSSTQVLVRDATANDSRTPSIDTLDDLAQRSYDSVDFFEIMDMLDKRLNDKGKYWRHVAKSLTVLDYLVRFGSENCVLWCRENFYVIKTLREFRHENESGFDEGQIIRVKAKELVSLLNDEERLREERSMNTRNRRANRAARPRPRRQRTRSNPHDSSPSYQDDLEKALEESRITAQEDEQRRRELAQYDDEDPDFQAALQLSKEEEELKQLQELQRLQKQQQSLSQFQAPLQQQQPQQQPAYYDIFGNPISQDEYLQYQYQQDQEQAMAQQRWLDQQQEQQQLAEQQYFQQQQQAAAAASALQQQQTAANMQQQQQQPADFQQPLPTGSNNPFSMDNLERQKQEQQHAQLQRQQEEARQQQEQLKLQQLQRQQQEEAQLHQKRQEEAQLQQQQAQLLQQQAQFQQQQPLKQTRTGNQSISDKYSDLNTLLATGTGIDTFGNTGEARIPAQHTKTGTFINSQGTGYKQVTNEPKNNPFLSNQYTGLPSTNIVPTQTGYGFGNQPQSPPTNSPQQNPTGISYSQPQQQQQPQQQPQYMQNFQQQQPQYAQNFQQQPQYTQNYQQQPQYIQPHQQQQQQQQQQQQQQGYTPDQGVSLIDL
B2: Clathrin heavy chain fused to mScarlet (Chc-mScarlet), wild type [Saccharomyces cerevisiae] / Ent1 endogenously tagged with mNeonGreen (Ent1-mNeonGreen) [Saccharomyces cerevisiae (endogenous in MK100)] (parent complex)
chain 1: B1 chain 1
chain 2: MSKQFVRSAKNLVKGYSSTQVLVRNATSNDNHQVSKDSLIELAEKSYDSADFFEIMDMLDKRLNDKGKYWRHIAKALTVIDYLIRFGSENCVLWCRENLYIIKTLKEFRHEDDEGIDQGQIVRVKAKELTALLSDDERLNEERNMNIKGRNRKGRRRRGTGRSDENDDDLQRAISASRLTAEEDERRRKQDEDYETALQLSKEEEELKRLQDLQRMQQQQGQQQLQQPMYYDIFGNPITPEEYAQFQLQQQQQQQQQQLQQQPMYYDVFGNPITPEELAQFQQQQQLQEQQYLASMQQQQQAMSNNPFAKSEQSSSSPKRNQLVAASSPQQLQQQKQQEPLIQNRTGNQSMTDKYSKLNELLATGTGIDTFGNVGEARIPAQHTKTGTFINSQGTGYRQVSDDPNHNPFLNSQYTGLPSTSVVPTQTGYGFGNQSQQQSQNNGSNNRGYTLIDL

The first assay covers variants of B1. In words: FRET acceptor photobleaching (in vivo); room temperature (21 °C); trimmed mean; n = 126; parent: 9.02.
For the variant chain 1 F26A, chain 1 Q155A, the response was found to be 10.1%.

Variants of B1 are the subject of a further assay. In words: FRET acceptor photobleaching (in vivo); room temperature (21 °C); trimmed mean; n = 127; parent: 9.02.
Regarding chain 1 F26A, chain 1 K63E, chain 1 I87D, chain 1 Q89A, chain 1 K98E, chain 1 Q155A, chain 1 Q195A, chain 1 I197T, chain 1 K251E, the response was found to be 7.03%.

Another assay covers variants of B1. Briefly: FRET acceptor photobleaching (in vivo); room temperature (21 °C); trimmed mean; n = 98; parent: 9.02.
With chain 1 K63E, chain 1 I87D, chain 1 Q89A, chain 1 K98E, the response amounted to 9.99%.

The variants in a further assay derive from B1. In words: FRET acceptor photobleaching (in vivo); room temperature (21 °C); trimmed mean; n = 117; parent: 9.02.
chain 1 F26A, chain 1 K63E, chain 1 I87D, chain 1 Q89A, chain 1 K98E, chain 1 Q155A: the response stood at 7.18%.

The variants in the next assay derive from B2. In words: FRET acceptor photobleaching (in vivo); room temperature (21 °C); trimmed mean; n = 102; parent: 7.87.
For the variant chain 1 Q195A, chain 1 I197T, chain 1 K251E, the response amounted to 8.6%.

The next assay covers variants of B2. Briefly: FRET acceptor photobleaching (in vivo); room temperature (21 °C); trimmed mean; n = 98; parent: 7.87.
Consider chain 1 F26A, chain 1 Q155A, for which the response was determined as 8.23%.

Variants of B2 are the subject of a further assay. Briefly: FRET acceptor photobleaching (in vivo); room temperature (21 °C); trimmed mean; n = 103; parent: 7.87.
Regarding chain 1 F26A, chain 1 Q155A, chain 1 Q195A, chain 1 I197T, chain 1 K251E, the response was found to be 8.19%.

(Values after article PMC11543927, “Subtleties in Clathrin heavy chain binding boxes provide selectivity among adaptor proteins of budding yeast” (Nature Communications, 2024).)
